{"source": "patent US20110305732A1", "binders": {"B1": {"name": "full length human Slit2 (ligand, UniProt O94813-3 31-1521, looked up)", "chain": "QCSCSGSTVDCHGLALRSVPRNIPRNTERLDLNGNNITRITKTDFAGLRHLRVLQLMENKISTIERGAFQDLKELERLRLNRNHLQLFPELLFLGTAKLYRLDLSENQIQAIPRKAFRGAVDIKNLQLDYNQISCIEDGAFRALRDLEVLTLNNNNITRLSVASFNHMPKLRTFRLHSNNLYCDCHLAWLSDWLRQRPRVGLYTQCMGPSHLRGHNVAEVQKREFVCSGHQSFMAPSCSVLHCPAACTCSNNIVDCRGKGLTEIPTNLPETITEIRLEQNTIKVIPPGAFSPYKKLRRIDLSNNQISELAPDAFQGLRSLNSLVLYGNKITELPKSLFEGLFSLQLLLLNANKINCLRVDAFQDLHNLNLLSLYDNKLQTIAKGTFSPLRAIQTMHLAQNPFICDCHLKWLADYLHTNPIETSGARCTSPRRLANKRIGQIKSKKFRCSGTEDYRSKLSGDCFADLACPEKCRCEGTTVDCSNQKLNKIPEHIPQYTAELRLNNNEFTVLEATGIFKKLPQLRKINFSNNKITDIEEGAFEGASGVNEILLTSNRLENVQHKMFKGLESLKTLMLRSNRITCVGNDSFIGLSSVRLLSLYDNQITTVAPGAFDTLHSLSTLNLLANPFNCNCYLAWLGEWLRKKRIVTGNPRCQKPYFLKEIPIQDVAIQDFTCDDGNDDNSCSPLSRCPTECTCLDTVVRCSNKGLKVLPKGIPRDVTELYLDGNQFTLVPKELSNYKHLTLIDLSNNRISTLSNQSFSNMTQLLTLILSYNRLRCIPPRTFDGLKSLRLLSLHGNDISVVPEGAFNDLSALSHLAIGANPLYCDCNMQWLSDWVKSEYKEPGIARCAGPGEMADKLLLTTPSKKFTCQGPVDVNILAKCNPCLSNPCKNDGTCNSDPVDFYRCTCPYGFKGQDCDVPIHACISNPCKHGGTCHLKEGEEDGFWCICADGFEGENCEVNVDDCEDNDCENNSTCVDGINNYTCLCPPEYTGELCEEKLDFCAQDLNPCQHDSKCILTPKGFKCDCTPGYVGEHCDIDFDDCQDNKCKNGAHCTDAVNGYTCICPEGYSGLFCEFSPPMVLPRTSPCDNFDCQNGAQCIVRINEPICQCLPGYQGEKCEKLVSVNFINKESYLQIPSAKVRPQTNITLQIATDEDSGILLYKGDKDHIAVELYRGRVRASYDTGSHPASAIYSVETINDGNFHIVELLALDQSLSLSVDGGNPKIITNLSKQSTLNFDSPLYVGGMPGKSNVASLRQAPGQNGTSFHGCIRNLYINSELQDFQKVPMQTGILPGCEPCHKKVCAHGTCQPSSQAGFTCECQEGWMGPLCDQRTNDPCLGNKCVHGTCLPINAFSYSCKCLEGHGGVLCDEEEDLFNPCQAIKCKHGKCRLSGLGQPYCECSSGYTGDSCDREISCRGERIRDYYQKQQGYAACQTTKKVSRLECRGGCAGGQCCGPLRSKRRKYSFECTDGSSFVDEVEKVVKCGCTRCVS"}}, "biological_target": "human Robo-1 (human) (UniProt Q9Y6N7)", "sequence (Q9Y6N7 26-1651)": "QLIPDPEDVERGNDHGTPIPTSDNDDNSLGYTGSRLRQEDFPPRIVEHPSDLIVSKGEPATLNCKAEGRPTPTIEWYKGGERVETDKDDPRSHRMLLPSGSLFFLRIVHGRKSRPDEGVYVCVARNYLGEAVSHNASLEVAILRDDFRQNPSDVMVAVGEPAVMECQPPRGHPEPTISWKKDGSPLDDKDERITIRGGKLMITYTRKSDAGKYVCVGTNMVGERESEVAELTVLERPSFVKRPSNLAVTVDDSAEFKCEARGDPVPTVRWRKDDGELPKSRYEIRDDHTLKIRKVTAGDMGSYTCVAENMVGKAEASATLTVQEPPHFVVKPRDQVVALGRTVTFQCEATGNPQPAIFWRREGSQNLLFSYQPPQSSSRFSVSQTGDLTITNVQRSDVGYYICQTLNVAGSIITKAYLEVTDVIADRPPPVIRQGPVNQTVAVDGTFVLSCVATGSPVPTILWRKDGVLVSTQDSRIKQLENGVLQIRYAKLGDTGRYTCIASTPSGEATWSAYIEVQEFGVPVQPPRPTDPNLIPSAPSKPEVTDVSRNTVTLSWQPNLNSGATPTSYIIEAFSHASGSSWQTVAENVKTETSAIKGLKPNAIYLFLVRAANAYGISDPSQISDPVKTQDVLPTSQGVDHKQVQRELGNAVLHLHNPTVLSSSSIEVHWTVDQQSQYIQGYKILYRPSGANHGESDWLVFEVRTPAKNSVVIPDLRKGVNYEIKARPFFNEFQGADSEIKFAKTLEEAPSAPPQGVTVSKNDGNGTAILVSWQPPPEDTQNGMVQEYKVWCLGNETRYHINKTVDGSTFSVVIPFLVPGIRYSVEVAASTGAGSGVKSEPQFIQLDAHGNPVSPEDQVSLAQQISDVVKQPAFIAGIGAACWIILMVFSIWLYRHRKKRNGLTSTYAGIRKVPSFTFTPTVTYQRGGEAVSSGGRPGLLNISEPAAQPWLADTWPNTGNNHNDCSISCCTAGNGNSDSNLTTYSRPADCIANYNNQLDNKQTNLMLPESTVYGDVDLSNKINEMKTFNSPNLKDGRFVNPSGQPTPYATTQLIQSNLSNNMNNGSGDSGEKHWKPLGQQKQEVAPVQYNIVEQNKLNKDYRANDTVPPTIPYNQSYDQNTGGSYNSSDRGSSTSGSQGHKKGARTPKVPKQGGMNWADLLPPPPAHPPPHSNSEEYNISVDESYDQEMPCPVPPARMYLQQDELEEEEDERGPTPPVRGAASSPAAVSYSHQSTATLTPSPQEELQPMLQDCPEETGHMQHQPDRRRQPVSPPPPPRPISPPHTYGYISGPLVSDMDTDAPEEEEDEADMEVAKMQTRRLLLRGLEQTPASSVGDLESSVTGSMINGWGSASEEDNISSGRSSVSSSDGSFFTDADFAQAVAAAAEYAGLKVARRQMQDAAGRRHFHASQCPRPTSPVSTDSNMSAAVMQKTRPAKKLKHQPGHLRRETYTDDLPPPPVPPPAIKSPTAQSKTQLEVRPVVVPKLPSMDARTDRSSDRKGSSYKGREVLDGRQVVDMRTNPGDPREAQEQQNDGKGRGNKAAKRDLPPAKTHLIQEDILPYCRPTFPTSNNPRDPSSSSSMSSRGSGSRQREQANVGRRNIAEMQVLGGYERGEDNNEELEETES", "assay": "cell-based or functional assay"}
{"binder": "B1", "values": [{"measurement": "average platelet surface area coverage on collagen at shear flow rate 1900 sec^-1", "result": 3.1, "unit": "%"}, {"measurement": "average surface area covered by platelets on collagen at shear flow rate 1000 sec^-1", "result": 1.3, "unit": "%"}, {"measurement": "mean platelet surface area on fibrinogen after 30 min (platelet spreading)", "result": 20.9, "unit": "µm^2"}, {"measurement": "mean surface area of platelets on collagen after 30 min (platelet spreading)", "result": 13.5, "unit": "µm^2"}, {"measurement": "mean surface area of platelets on fibronectin after 30 min (platelet spreading)", "result": 19.3, "unit": "µm^2"}, {"measurement": "percentage of platelets expressing cell-surface CD62P after ADP stimulation", "result": 13.2, "unit": "%"}, {"measurement": "phosphorylation of Akt during platelet spreading on fibrinogen (fold over basal 1.0) (fold over basal)", "result": 2.8}]}
